# Experimental data from publication PMC8592984 (2021).
# Where two headings read alike, the source gives them in different places.
# Experiments:
# Assay in all cases: SPR
# Tau 441 P301S = Tau 441 P301S (human, UniProt P10636-8 1-441, P301S)
# [1] = target: T1, human Tau 441 full-length protein (4R tau), SPR construct (human, UniProt P10636-8 1-441)
# Tau 410 P179A = Tau 410 P179A (human, UniProt P10636-5 1-410, P179A)
# Tau 410 P179A/P216A = Tau 410 P179A/P216A (human, UniProt P10636-5 1-410, P179A | P216A)
# Sequence of Tau 410 P179A/P216A (P10636 other isoform, or with tags, fused parts or gaps P179A | P216A | P179A P216A): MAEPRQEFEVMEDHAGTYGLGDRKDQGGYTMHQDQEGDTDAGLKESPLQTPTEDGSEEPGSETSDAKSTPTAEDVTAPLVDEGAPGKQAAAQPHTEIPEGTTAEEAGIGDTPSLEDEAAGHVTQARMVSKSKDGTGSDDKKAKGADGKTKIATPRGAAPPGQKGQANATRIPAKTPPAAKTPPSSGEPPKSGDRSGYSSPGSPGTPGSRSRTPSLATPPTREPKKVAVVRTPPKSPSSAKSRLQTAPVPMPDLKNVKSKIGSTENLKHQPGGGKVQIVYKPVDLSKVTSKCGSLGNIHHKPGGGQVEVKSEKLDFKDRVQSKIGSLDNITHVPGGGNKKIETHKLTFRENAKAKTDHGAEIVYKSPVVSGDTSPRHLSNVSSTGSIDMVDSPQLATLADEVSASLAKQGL
# [2] = target: T1, human Tau 441 full-length protein (4R …); remark: listed apart in the source
# [3] = target: human Tau 410 full-length protein (3R tau), SPR construct (human, UniProt P10636-5 1-410)
# Sequence of human Tau 410 full-length protein (3R tau), SPR construct (P10636 other isoform, or with tags, fused parts or gaps): as the sequence (P10636 other isoform, or with tags, fused parts or gaps P179A | P216A | P179A P216A) above, with A179P, A216P counted along it
# Tau 410 P216A = Tau 410 P216A (human, UniProt P10636-5 1-410, P216A)
# Sequence of Tau 410 P216A (P10636 other isoform, or with tags, fused parts or gaps P216A | P216A): as the sequence (P10636 other isoform, or with tags, fused parts or gaps P179A | P216A | P179A P216A) above, with A179P counted along it
# T1 sequence (P10636 other isoform, or with tags, fused parts or gaps): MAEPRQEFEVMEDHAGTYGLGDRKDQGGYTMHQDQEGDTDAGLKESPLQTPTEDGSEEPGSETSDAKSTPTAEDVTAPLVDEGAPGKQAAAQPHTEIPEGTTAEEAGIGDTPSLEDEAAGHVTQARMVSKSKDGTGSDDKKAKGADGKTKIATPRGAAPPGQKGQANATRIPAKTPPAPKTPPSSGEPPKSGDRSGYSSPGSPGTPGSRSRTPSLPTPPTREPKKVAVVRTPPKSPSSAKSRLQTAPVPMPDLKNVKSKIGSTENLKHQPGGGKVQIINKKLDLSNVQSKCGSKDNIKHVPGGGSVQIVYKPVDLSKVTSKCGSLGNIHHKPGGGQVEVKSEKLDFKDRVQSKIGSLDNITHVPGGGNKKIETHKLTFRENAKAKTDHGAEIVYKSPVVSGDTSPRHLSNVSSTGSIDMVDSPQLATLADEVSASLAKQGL
# Sequence of Tau 410 P179A (P10636 other isoform, or with tags, fused parts or gaps P179A | P179A): as the sequence (P10636 other isoform, or with tags, fused parts or gaps P179A | P216A | P179A P216A) above, with A216P counted along it
# Sequence of Tau 441 P301S (P10636 other isoform, or with tags, fused parts or gaps P301S | P301S): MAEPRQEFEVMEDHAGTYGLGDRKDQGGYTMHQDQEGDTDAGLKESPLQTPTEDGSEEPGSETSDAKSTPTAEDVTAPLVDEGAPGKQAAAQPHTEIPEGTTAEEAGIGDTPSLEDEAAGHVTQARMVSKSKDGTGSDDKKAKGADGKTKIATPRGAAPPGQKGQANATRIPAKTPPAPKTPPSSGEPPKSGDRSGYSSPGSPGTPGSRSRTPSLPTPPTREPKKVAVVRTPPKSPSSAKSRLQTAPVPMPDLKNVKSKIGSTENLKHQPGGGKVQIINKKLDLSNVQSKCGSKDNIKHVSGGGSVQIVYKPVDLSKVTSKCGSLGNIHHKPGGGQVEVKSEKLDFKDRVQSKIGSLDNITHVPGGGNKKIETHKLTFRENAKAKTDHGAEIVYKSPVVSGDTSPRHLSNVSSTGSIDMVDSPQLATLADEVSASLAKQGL
Kd (Tau 441 P301S),Kd [1],Kd (Tau 410 P179A),Kd (Tau 410 P179A/P216A),Kd [2],Kd [3],Kd (Tau 410 P216A),Binder
51.5 nM,42.1 nM,4.82 µM,26 µM,12.2 nM,43.3 nM,314 nM,human PQBP1 full-length form (PQBP1-FL) (natural protein) MPLPVALQTRLAKRGILKHLEPEPEEEIIAEDYDDDPVDYEATRLEGLPPSWYKVFDPSCGLPYYWNADTDLVSWLSPHDPNSVVTKSAKKLRSSNADAEEKLDRSHDKSDRGHDKSDRSHEKLDRGHDKSDRGHDKSDRDRERGYDKVDRERERDRERDRDRGYDKADREEGKERRHHRREELAPYPKSKKAVSRKDEELDPMDPSSYSDAPRGTWSTGLPKRNEAKTGADTTAAGPLFQQRPYPSPGAVLRANAEASRTKQQD
46.2 nM,54.7 nM,6.34 µM,73.3 µM,11 nM,76.9 nM,445 nM,human PQBP1(1–94) including WWD (domain or fragment) MPLPVALQTRLAKRGILKHLEPEPEEEIIAEDYDDDPVDYEATRLEGLPPSWYKVFDPSCGLPYYWNADTDLVSWLSPHDPNSVVTKSAKKLRS
